Reference: patent US20260152559A1 (Janssen / Centocor, published 2026)

Legend:
[1] = molecular target: human CD3 on cells (Jurkat cells, primary human T cells) (human) (UniProt P07766); experiment: flow cytometry, 10 nM antibody on Jurkat cells; no-antibody background 2075.61
[2] = molecular target: hK2 on target cells (VCaP, LNCaP/hK2 and other hK2 positive tumor cells) (human, UniProt P20151 19-261); experiment: cell-based or functional assay
[3] = molecular target: T1, kallikrein related peptidase 2 (hK2), soluble (human, UniProt P20151 19-261, biotin label in the CAR staining assays (site not stated)); experiment: SPR; bispecific antibody captured on anti-Fc sensor chip, soluble hK2 injected; 1:1 Langmuir fit
T1 construct: also called KLK2; human KLK2 protein
T1 sequence (P20151 19-261): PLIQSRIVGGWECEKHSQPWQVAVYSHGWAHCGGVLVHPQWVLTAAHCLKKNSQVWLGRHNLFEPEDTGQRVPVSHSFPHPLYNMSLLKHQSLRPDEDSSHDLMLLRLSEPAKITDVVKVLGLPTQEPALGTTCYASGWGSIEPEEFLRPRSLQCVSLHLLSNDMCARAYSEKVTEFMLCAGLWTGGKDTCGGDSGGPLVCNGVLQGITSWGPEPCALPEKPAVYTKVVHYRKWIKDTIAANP

Chain of hK2 on target cells (VCaP, LNCaP/hK2 and other hK2 positive tumor cells) (P20151 19-261): as above
Chain of human CD3 on cells (Jurkat cells, primary human T cells) (human) (P07766 23-207 limits assumed): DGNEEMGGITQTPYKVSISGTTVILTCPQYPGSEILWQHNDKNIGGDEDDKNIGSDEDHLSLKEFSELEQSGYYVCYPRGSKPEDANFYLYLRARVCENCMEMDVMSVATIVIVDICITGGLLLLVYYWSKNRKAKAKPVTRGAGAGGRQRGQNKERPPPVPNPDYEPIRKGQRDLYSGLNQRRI

## UCHT1 (antibody)
[1]
  MFI (mean fluorescence index) (arbitrary units): 89200

B1: CAR19 (KL2B359_HL) (other)
chain: QVQLQESGPGLVKPSQTLSLTCTVSGNSITSDYAWNWIRQFPGKRLEWIGYISYSGSTTYNPSLKSRVTISRDTSKNQFSLKLSSVTAADTAVYYCATGYYYGSGFWGQGTLVTVSSGGSEGKSSGSGSESKSTGGSEIVLTQSPATLSLSPGERATLSCRASESVEYFGTSLMHWYQQKPGQPPRLLIYAASNVESGIPARFSGSGSGTDFTLTISSVEPEDFAVYFCQQTRKVPYTFGGGTKVEIKTSTPAPRPPTPAPTIASQPLSLRPEACRPAAGGAVHTRGLDFACDIYIWAPLAGTCGVLLLSLVITLYCKRGRKKLLYIFKQPFMRPVQTTQEEDGCSCRFPEEEEGGCELRVKFSRSADAPAYKQGQNQLYNELNLGRREEYDVLDKRRGRDPEMGGKPRRKNPQEGLYNELQKDKMAEAYSEIGMKGERRRGKGHDGLYQGLSTATKDTYDALHMQALPPR
[2]
  tumor cell growth inhibition (TGI) of VCaP cells, IncuCyte killing assay, 96 hours, E:T 1:1 or 0.5:1: ~100%

B2: KL2B30 Fab arm of an hK2/CD3 bispecific antibody (Table 39) (bispecific antibody)
chain 1: QVQLQESGPGLVKPSETLSLTCTVSGGSISSYYWSWIRQPPGKGLEWIGYIYYSGSTNYNPSLKSRVTISVDTSKNQFSLKLSSVTAADTAVYYCAGTTIFGVVTPNFYYGMDVWGQGTTVTVSSASTKGPSVFPLAPSSKSTSGGTAALGCLVKDYFPEPVTVSWNSGALTSGVHTFPAVLQSSGLYSLSSVVTVPSSSLGTQTYICNVNHKPSNTKVDKKVEPKSCDKTHTCPPCPAPEAAGGPSVFLFPPKPKDTLMISRTPEVTCVVVSVSHEDPEVKFNWYVDGVEVHNAKTKPREEQYNSTYRVVSVLTVLHQDWLNGKEYKCKVSNKALPAPIEKTISKAKGQPREPQVYVLPPSREEMTKNQVSLLCLVKGFYPSDIAVEWESNGQPENNYLTWPPVLDSDGSFFLYSKLTVDKSRWQQGNVFSCSVMHEALHNHYTQKSLSLSPG
chain 2: DIQMTQSPSFLSASVGDRVTITCRASQGISSYLAWYQQKPGKAPKFLIYAASTLQSGVPSRFSGSGSGTEFTLTISSLQPEDFATYYCQQLNSYPLTFGGGTKVEIKRTVAAPSVFIFPPSDEQLKSGTASVVCLLNNFYPREAKVQWKVDNALQSGNSQESVTEQDSKDSTYSLSSTLTLSKADYEKHKVYACEVTHQGLSSPVTKSFNRGEC
chain 3: DIQMTQSPSSLSASVGDRVTITCRARQSIGTAIHWYQQKPGKAPKLLIKYASESISGVPSRFSGSGSGTDFTLTISSLQPEDFATYYCQQSGSWPYTFGQGTKLEIKGGSEGKSSGSGSESKSTGGSEVQLVESGGGLVKPGGSLRLSCAASGFTFSRYNMNWVRQAPGKGLEWVSSISTSSNYIYYADSVKGRFTFSRDNAKNSLDLQMSGLRAEDTAIYYCTRGWGPFDYWGQGTLVTVSSEPKSSDKTHTCPPCPAPEAAGGPSVFLFPPKPKDTLMISRTPEVTCVVVSVSHEDPEVKFNWYVDGVEVHNAKTKPREEQYNSTYRVVSVLTVLHQDWLNGKEYKCKVSNKALPAPIEKTISKAKGQPREPQVYVYPPSREEMTKNQVSLTCLVKGFYPSDIAVEWESNGQPENNYKTTPPVLDSDGSFALVSKLTVDKSRWQQGNVFSCSVMHEALHNHYTQKSLSLSPG
[3]
  Kd: 2 nM

B3: KL2B53 Fab arm of an hK2/CD3 bispecific antibody (Table 39) (bispecific antibody)
chain 1: EVQLVESGGGVVQPGRSLRLSCVASGFTFSSYDIHWVRQAPGKGLEWVAIISYDGSKKDYTDSVKGRFTISRDNSKNTLYLQMDSLRVEDSAVYSCARESGWSHYYYYGMDVWGQGTMVTVSSASTKGPSVFPLAPSSKSTSGGTAALGCLVKDYFPEPVTVSWNSGALTSGVHTFPAVLQSSGLYSLSSVVTVPSSSLGTQTYICNVNHKPSNTKVDKKVEPKSCDKTHTCPPCPAPEAAGGPSVFLFPPKPKDTLMISRTPEVTCVVVSVSHEDPEVKFNWYVDGVEVHNAKTKPREEQYNSTYRVVSVLTVLHQDWLNGKEYKCKVSNKALPAPIEKTISKAKGQPREPQVYVLPPSREEMTKNQVSLLCLVKGFYPSDIAVEWESNGQPENNYLTWPPVLDSDGSFFLYSKLTVDKSRWQQGNVFSCSVMHEALHNHYTQKSLSLSPG
chain 2: DIVMTQSPSSLSASVGDRVTITCRASQDISNYLAWYQQKPGKVPKFLIYAASTLHSGVPSRFSGSGSGTDFTLTISSLQPEDVATYYCQKYNSAPYTFGQGTRLEIKRTVAAPSVFIFPPSDEQLKSGTASVVCLLNNFYPREAKVQWKVDNALQSGNSQESVTEQDSKDSTYSLSSTLTLSKADYEKHKVYACEVTHQGLSSPVTKSFNRGEC
chain 3: DIQMTQSPSSLSASVGDRVTITCRARQSIGTAIHWYQQKPGKAPKLLIKYASESISGVPSRFSGSGSGTDFTLTISSLQPEDFATYYCQQSGSWPYTFGQGTKLEIKGGSEGKSSGSGSESKSTGGSEVQLVESGGGLVKPGGSLRLSCAASGFTFSRYNMNWVRQAPGKGLEWVSSISTSSNYIYYADSVKGRFTFSRDNAKNSLDLQMSGLRAEDTAIYYCTRGWGPFDYWGQGTLVTVSSEPKSSDKTHTCPPCPAPEAAGGPSVFLFPPKPKDTLMISRTPEVTCVVVSVSHEDPEVKFNWYVDGVEVHNAKTKPREEQYNSTYRVVSVLTVLHQDWLNGKEYKCKVSNKALPAPIEKTISKAKGQPREPQVYVYPPSREEMTKNQVSLTCLVKGFYPSDIAVEWESNGQPENNYKTTPPVLDSDGSFALVSKLTVDKSRWQQGNVFSCSVMHEALHNHYTQKSLSLSPG
[3]
  Kd: 0.1 nM

B4: CAR20 (KL2B359_LH) (other)
chain: EIVLTQSPATLSLSPGERATLSCRASESVEYFGTSLMHWYQQKPGQPPRLLIYAASNVESGIPARFSGSGSGTDFTLTISSVEPEDFAVYFCQQTRKVPYTFGGGTKVEIKGGSEGKSSGSGSESKSTGGSQVQLQESGPGLVKPSQTLSLTCTVSGNSITSDYAWNWIRQFPGKRLEWIGYISYSGSTTYNPSLKSRVTISRDTSKNQFSLKLSSVTAADTAVYYCATGYYYGSGFWGQGTLVTVSSTSTPAPRPPTPAPTIASQPLSLRPEACRPAAGGAVHTRGLDFACDIYIWAPLAGTCGVLLLSLVITLYCKRGRKKLLYIFKQPFMRPVQTTQEEDGCSCRFPEEEEGGCELRVKFSRSADAPAYKQGQNQLYNELNLGRREEYDVLDKRRGRDPEMGGKPRRKNPQEGLYNELQKDKMAEAYSEIGMKGERRRGKGHDGLYQGLSTATKDTYDALHMQALPPR
[2]
  tumor cell growth inhibition (TGI) of VCaP cells, IncuCyte killing assay, 96 hours, E:T 1:1 or 0.5:1: ~100%

B5: CAR17 (KL2B413_HL) (other)
chain: EVQLVESGGGLVQPGGSLRLSCAASGFTFSSYWMTWVRQAPGKGLEWVANIKQDGSERYYVDSVKGRFTISRDNAKNSLYLQMNSLRAEDTAVYYCARDQNYDILTGHYGMDVWGQGTTVTVSSGGSEGKSSGSGSESKSTGGSEIVLTQSPSFLSASVGDRVTITCRASQGISSYLSWYQQKPGKAPKLLIYATSTLQSGVPSRFSGSGSGTEFTLTISSLQPEDFATYYCQQLNSYPRTFGQGTKVEIKTSTPAPRPPTPAPTIASQPLSLRPEACRPAAGGAVHTRGLDFACDIYIWAPLAGTCGVLLLSLVITLYCKRGRKKLLYIFKQPFMRPVQTTQEEDGCSCRFPEEEEGGCELRVKFSRSADAPAYKQGQNQLYNELNLGRREEYDVLDKRRGRDPEMGGKPRRKNPQEGLYNELQKDKMAEAYSEIGMKGERRRGKGHDGLYQGLSTATKDTYDALHMQALPPR
[2]
  tumor cell growth inhibition (TGI) of VCaP cells, IncuCyte killing assay, 96 hours, E:T 1:1 or 0.5:1: ~100%
